The target in assay [1] is T1, human P2X4R peptide (extracellular 13-amino-acid peptide fragment of human P2X4R) (Homo sapiens, UniProt Q99571, biotinylated (position not given) where immobilised as ligand).
T1 construct: P2X purinoceptor 4, human; extracellular 13-amino-acid peptide fragment, the counterpart of rat residues 301-313 (11/13 residues identical to the rat peptide); also called human P2X4 peptide; source: synthetic peptide (GenScript)
T1 chain: RDLAGNEQRTLIK
Put plainly: ELISA; indirect ELISA, purified hscFvs on human P2X4 peptide, triplicate wells (Figure 3B). As to conditions: both partners purified.

Assay [2] deals with T1, human P2X4R peptide (extracellular …). Description: BLI; Octet RED384; hscFv (5 ug/mL) captured on HIS1K penta-His sensors; peptide in 7 three-fold dilutions, 1.03-250 nM; 1X KB (PBS pH 7.4, 0.02% Tween-20, 0.1% albumin, 0.05% sodium azide); association 240 s, dissociation 420 s; global 1:1 fit. The conditions noted are these: both partners purified.

B1: humanized P2X4R scFv HC1-LC1 (scFv, V domains shown)
VH: EVKLVESGGGLVQPGGSLRLSCATSGFTFTDYYMSWVRQPPGKALEWLGFIRNKANGYTTEYSASVKGRFTISRDNSQSILYLQMNTLRAEDSATYYCARWEGDLLYAMDYWGQGTSVTVSS
VL: DIQMTQTTSSLSASLGDRVTISCSASQGISNYLNWYQQKPDGTVKLLIYYTSSLHSGVPSRFSGSGSGTDYSLTISNLEQEDIATYYCQQYSKLPWTFGGGTKLEIK
notes: humanized VH hscFv95.HC1 (CDRs of murine mscFv95 grafted on a human framework); 15-amino-acid linker, printed as (G4S)3; humanized VL hscFv95.LC1 (CDRs of murine mscFv95 grafted on a human framework); Cloned NcoI/NotI into a pET32a-His vector; also called hscFv95.HC1 + hscFv95.LC1; source: E. coli Rosetta-gami (DE3), purified (HisTrap, SEC)
With B1, the Kd in assay [1] worked out at 24 nM.

B2: humanized P2X4R scFv HC2-LC1 (scFv, V domains shown)
VH: QVQLQESGPGLVKPSQTLSLTCTTSGFTFTDYYMSWVRQAPGKGLEWIGFIRNKANGYTTEYSASVKGRFTISRDNSKNQFSLRLSSVTAADTAVYYCARWEGDLLYAMDYWGQGTTVTVSS
VL: DIQMTQTTSSLSASLGDRVTISCSASQGISNYLNWYQQKPDGTVKLLIYYTSSLHSGVPSRFSGSGSGTDYSLTISNLEQEDIATYYCQQYSKLPWTFGGGTKLEIK
notes: humanized VH hscFv95.HC2 (CDRs of murine mscFv95 grafted on a human framework); 15-amino-acid linker, printed as (G4S)3; humanized VL hscFv95.LC1, as the VL of m1; Cloned NcoI/NotI into a pET32a-His vector; also called hscFv95.HC2 + hscFv95.LC1; source: E. coli Rosetta-gami (DE3), purified (HisTrap, SEC)
Turning to B2, in assay [1], the dissociation constant Kd was 12 nM.

B3: humanized P2X4R scFv HC3-LC3 (lead) (scFv, V domains shown)
VH: EVQLVESGGGLVQPGGSLRLSCATSGFTFTDYYMHWVRQAPGKGLEWVGFIRNKANGYTTEYSASVKGRFTISRDNSKNTLYLQMNSLRAEDTAVYYCARWEGDLLYAMDYWGQGTLVTVSS
VL: DIQMTQSPSSLSASVGDRVTITCRASQGISNYLNWYQQKPGKAPKLLIYYTSSLHSGVPSRFSGSGSGTDFTLTISSLQPEDFAYYYCQQYSKLPWTFGGGTKVEIK
notes: humanized VH hscFv95.HC3 (CDRs of murine mscFv95 grafted on a human framework); 15-amino-acid linker, printed as (G4S)3; humanized VL hscFv95.LC3, as the VL of m3; Cloned NcoI/NotI into a pET32a-His vector; Captured on HIS1K penta-His sensors in the Octet assay; also called hscFv HC3-LC3; P2X4R hscFv; source: E. coli Rosetta-gami (DE3), purified (HisTrap, SEC)
Take B3: the Kd in assay [2] came out at 2.5 nM; in assay [1] it was 2.3 nM.

B4: humanized P2X4R scFv HC3-LC1 (scFv, V domains shown)
VH: EVQLVESGGGLVQPGGSLRLSCATSGFTFTDYYMHWVRQAPGKGLEWVGFIRNKANGYTTEYSASVKGRFTISRDNSKNTLYLQMNSLRAEDTAVYYCARWEGDLLYAMDYWGQGTLVTVSS
VL: DIQMTQTTSSLSASLGDRVTISCSASQGISNYLNWYQQKPDGTVKLLIYYTSSLHSGVPSRFSGSGSGTDYSLTISNLEQEDIATYYCQQYSKLPWTFGGGTKLEIK
notes: humanized VH hscFv95.HC3, as the VH of m4; 15-amino-acid linker, printed as (G4S)3; humanized VL hscFv95.LC1, as the VL of m1; Cloned NcoI/NotI into a pET32a-His vector; also called hscFv95.HC3 + hscFv95.LC1; source: E. coli Rosetta-gami (DE3), purified (HisTrap, SEC)
For B4, the Kd in assay [1] is 4.7 nM.

B5: humanized P2X4R scFv HC2-LC3 (scFv, V domains shown)
VH: QVQLQESGPGLVKPSQTLSLTCTTSGFTFTDYYMSWVRQAPGKGLEWIGFIRNKANGYTTEYSASVKGRFTISRDNSKNQFSLRLSSVTAADTAVYYCARWEGDLLYAMDYWGQGTTVTVSS
VL: DIQMTQSPSSLSASVGDRVTITCRASQGISNYLNWYQQKPGKAPKLLIYYTSSLHSGVPSRFSGSGSGTDFTLTISSLQPEDFAYYYCQQYSKLPWTFGGGTKVEIK
notes: humanized VH hscFv95.HC2, as the VH of m2; 15-amino-acid linker, printed as (G4S)3; humanized VL hscFv95.LC3 (CDRs of murine mscFv95 grafted on a human framework); Cloned NcoI/NotI into a pET32a-His vector; also called hscFv95.HC2 + hscFv95.LC3; source: E. coli Rosetta-gami (DE3), purified (HisTrap, SEC)
In assay [1], B5 gave a Kd of 29 nM.

Source of the values: article PMC12248463, “Humanized scFv Molecule Specific to an Extracellular Epitope of P2X4R as Therapy for Chronic Pain Management” (Cells, 2025).
